Experimental data taken from PMC7124660.

What was measured:
[1] = biological target: hemagglutinin of avian influenza virus H1N1 (avian influenza virus H1N1); assay: ELISA
[2] = biological target: hemagglutinin of avian influenza virus H5N1 (avian influenza virus H5N1); assay: ELISA
hemagglutinin of avian influenza virus H5N1 (avian influenza virus H5N1), sequence (Q9Q0U6 17-568): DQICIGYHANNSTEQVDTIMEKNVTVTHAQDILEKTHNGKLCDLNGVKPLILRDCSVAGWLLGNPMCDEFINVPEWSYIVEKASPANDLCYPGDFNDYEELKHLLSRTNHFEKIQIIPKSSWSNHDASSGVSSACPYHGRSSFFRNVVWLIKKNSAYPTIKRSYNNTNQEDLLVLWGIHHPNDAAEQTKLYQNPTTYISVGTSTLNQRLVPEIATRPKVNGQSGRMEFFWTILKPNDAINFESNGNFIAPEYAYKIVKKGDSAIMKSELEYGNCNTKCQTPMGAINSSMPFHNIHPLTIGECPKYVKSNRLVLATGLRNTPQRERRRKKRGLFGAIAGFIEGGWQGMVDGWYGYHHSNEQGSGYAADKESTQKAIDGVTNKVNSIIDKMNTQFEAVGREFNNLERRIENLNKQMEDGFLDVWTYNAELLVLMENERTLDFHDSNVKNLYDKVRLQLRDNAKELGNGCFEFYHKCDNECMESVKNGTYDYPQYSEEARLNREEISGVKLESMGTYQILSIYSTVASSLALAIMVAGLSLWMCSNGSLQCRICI

Desialylated ovomucin (from UniProt Q98UI9;F1NBL0) (complex)
percent decrease of binding capacity against natural OVM [1]: 64.2% | percent decrease of binding capacity against natural OVM [2]: 71.5%
